Sequences and labels used below:
B1: wild-type human αB-crystallin (natural protein, UniProt P02511 1-175, looked up)
chain: MDIAIHHPWIRRPFFPFHSPSRLFDQFFGEHLLESDLFPTSTSLSPFYLRPPSFLRAPSWFDTGLSEMRLEKDRFSVNLDVKHFSPEELKVKVLGDVIEVHGKHEERQDEHGFISREFHRKYRIPADVDPLTITSSLSSDGVLTVNGPRKQVSGPERTIPITREEKPAVTAAPKK
notes: αB-crystallin, human; The reverse primer carries no stop codon; Large oligomer (molar mass about 4.8e5 g/mol by light scattering); also called αBWt; Wt αB-crystallin; source: E. coli BL21(DE3), purified (gel filtration, ion-exchange chromatography)
B2: αB-crystallin R12A mutant (natural protein, human, UniProt P02511 1-175, looked up)
chain: B1 chain with R12A
notes: αB-crystallin, human, R12A made by site-directed mutagenesis on the Wt cDNA in pET23a; Same construct as m3 with R12A; also called αB_(R12A); source: E. coli BL21(DE3), purified (gel filtration, ion-exchange chromatography)
B3: αA-crystallin R12A mutant (natural protein, human, UniProt P02489 1-173, looked up)
chain: MDVTIQHPWFKATLGPFYPSRLFDQFFGEGLFEYDLLPFLSSTISPYYRQSLFRTVLDSGISEVRSDRDKFVIFLDVKHFSPEDLTVKVQDDFVEIHGKHNERQDDHGYISREFHRRYRLPSNVDQSALSCSLSADGMLTFCGPKIQTGLDATHAERAIPVSREEKPTSAPSS

Positions count from the first letter of the chain named. In names and notes the source's numbering stands.

The data set deals with the molecule itself. Put plainly: multi-angle light scattering; molar mass and hydrodynamic radius of wild-type and R12A proteins, ASTRA 5.3.4; conditions as in refs 32, 58.
Regarding B1, the binding result is “binds”.

B2: the binding result is on record as “binds”.

As to B3, the binding result was “binds”.

Source of the values: PMC3260246 (PLoS ONE, 2012).
